Reference: publication PMC12584684, “A minimal SufB2C2 complex functions as a [4Fe-4S] cluster scaffold in methanogenic archaea” (Microbiology Spectrum, 2025)
Blank lines part the entries; values can stand above or below the compound they belong to.

Key:
[1] = molecular target: His6-tagged Methanothermococcus thermolithotrophicus SufC (Methanothermococcus thermolithotrophicus); assay: SEC; Superdex 200 10/300 GL, 50 mM sodium HEPES, 200 mM NaCl, 5 mM MgCl2, pH 7.5; samples pretreated with 10 mM EDTA and 10 mM DTH overnight; calibrated with standards of 29-700 kDa; fractions on SDS-PAGE
[2] = tested on: T1, MTH SufB2C2; assay: malachite green Pi release ATPase assay; assay type: biochemical, Methanothermococcus thermolithotrophicus; conditions: 60°C, pH 7.5, 5 mM MgCl2, 0-2 mM ATP, holo-form, anoxic
T1 construct: gene sufC; N-terminal His6-SufC co-expressed with untagged SufB in E. coli Rosetta 2(DE3); SufB2C2 heterotetramer, ~156 kDa by SEC; with Fe-S cluster assembly protein SufB
Source text: malachite green Pi release ATPase assay on MTH SufB2C2 | kinetic parameters (Vmax, Km, kcat, and catalytic efficiency) for holo-forms of MTH SufC and SufB2C2

[3] = tested on: T2, MTH SufC; assay: malachite green Pi release ATPase assay; assay type: biochemical, Methanothermococcus thermolithotrophicus; conditions: 60°C, pH 7.5, 5 mM MgCl2, 0-2 mM ATP, holo-form, anoxic
T2 construct: pET15b N-terminal His6-tag, E. coli Rosetta 2(DE3), anoxic Ni-NTA; monomer 30 kDa, dimer by SEC
Source text: malachite green Pi release ATPase assay on MTH SufC | kinetic parameters (Vmax, Km, kcat, and catalytic efficiency) for holo-forms of MTH SufC and SufB2C2

[4] = molecular target: His6-tagged Methanothermococcus thermolithotrophicus SufC (Methanothermococcus thermolithotrophicus)
[5] = molecular target: His6-tagged Methanothermococcus thermolithotrophicus SufC (Methanothermococcus thermolithotrophicus); remark: listed apart in the source
[6] = molecular target: T3, MMP SufB2C2 (Methanococcus maripaludis, UniProt Q6LY25); assay: iron quantification, UV-visible and EPR spectroscopy, as purified; assay type: binding; conditions: anoxic purification from native host; EPR at 10 K after 5 mM dithionite
T3 construct: gene MMP1168; sufCB operon, N-terminal Strep-tag on SufC, expressed in M. maripaludis S0001 and purified anoxically; SufB2C2 heterotetramer; with Fe-S cluster assembly protein SufB
T3 sequence (Q6LY25 1-248): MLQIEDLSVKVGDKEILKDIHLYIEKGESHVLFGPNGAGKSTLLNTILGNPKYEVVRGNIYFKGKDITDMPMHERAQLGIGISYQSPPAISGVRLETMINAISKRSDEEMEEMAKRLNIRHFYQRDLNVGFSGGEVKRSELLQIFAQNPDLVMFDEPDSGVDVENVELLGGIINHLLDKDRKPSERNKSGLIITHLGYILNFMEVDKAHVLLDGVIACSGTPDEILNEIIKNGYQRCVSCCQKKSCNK
T3 sequence (Q6LY24 1-418 partner): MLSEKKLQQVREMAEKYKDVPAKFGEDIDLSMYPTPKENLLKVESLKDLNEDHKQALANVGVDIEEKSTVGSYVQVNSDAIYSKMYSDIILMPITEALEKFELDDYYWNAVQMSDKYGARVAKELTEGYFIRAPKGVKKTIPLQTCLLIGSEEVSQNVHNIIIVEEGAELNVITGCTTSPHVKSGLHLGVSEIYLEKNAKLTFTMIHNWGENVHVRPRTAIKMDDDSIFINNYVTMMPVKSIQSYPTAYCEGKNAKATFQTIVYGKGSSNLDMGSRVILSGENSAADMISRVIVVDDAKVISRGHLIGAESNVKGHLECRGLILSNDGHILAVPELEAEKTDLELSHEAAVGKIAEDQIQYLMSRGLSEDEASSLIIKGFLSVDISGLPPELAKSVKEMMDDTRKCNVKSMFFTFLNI

[7] = molecular target: His6-tagged Methanothermococcus thermolithotrophicus SufB (Methanothermococcus thermolithotrophicus); assay: SEC; Superdex 200 10/300 GL, 50 mM sodium HEPES, 200 mM NaCl, 5 mM MgCl2, pH 7.5; samples pretreated with 10 mM EDTA and 10 mM DTH overnight; calibrated with standards of 29-700 kDa; fractions on SDS-PAGE

Compound: His6-tagged Methanothermococcus thermolithotrophicus SufC (natural protein)
- stoichiometry N [1]: 2

Compound: Nc1ncnc2c1ncn2[C@@H]1O[C@H](COP(=O)(O)OP(=O)(O)OP(=O)(O)O)[C@@H](O)[C@H]1O [ATP]
- Km [2]: 2600 ± 700 µM
- Km [3]: 1900 ± 800 µM

Compound: [S]12[Fe]3[S]4[Fe]1[S]1[Fe]2[S]3[Fe]41 [[4Fe-4S] cluster]
- Fe atoms per protomer [6]: 1.6 ± 0.3 Fe per protomer

Second part, the compound after the results:

- activation of apo-AcnB (Fe-S cluster transfer, aconitase activity) by the MTH SufB2C2 complex against MTH SufC alone [4]: 2 fold
- ATPase activity (malachite green) of the MTH SufB2C2 complex against MTH SufC alone at 60°C [5]: 7 fold
Compound: untagged Methanothermococcus thermolithotrophicus SufB (natural protein)

- stoichiometry N [7]: 2
Compound: His6-tagged Methanothermococcus thermolithotrophicus SufB (natural protein)
